Reference: paper PMC4640650 (Science Advances, 2015)

Biological target: the molecule itself
Assay: crystal structure

B1: ATP synthase c-subunit of Mycobacterium phlei (Fo rotor ring, c9 ring) (natural protein, UniProt A0A5N5V239 1-86, looked up)
chain: MELDPNALITAGALIGGGLIMGGGAIGAGIGDGIAGNALISGIARQPEAQGRLFTPFFITVGLVEAAYFINLAFMALFVFATPGLQ
  stoichiometry N: 9
